Literature values in PMC4741438, “Targeting the SIN3A-PF1 interaction inhibits epithelial to mesenchymal transition and maintenance of a stem cell phenotype in triple negative breast cancer” (Oncotarget, 2015).

Tested on: PAH2
Conditions: in comparison to MAD
Text: The PAH2 domain of SIN3 mediates interactions with a restricted subset of factors containing a conserved SIN3 interaction domain (SID) with homology to amino acids 5-24 of the prototypic PAH2-binding protein, the transcriptional repressor MAD [19-22]. […] Therefore, the use of small molecules based on in silico modeling of the MAD-SID sequence to prevent recruitment of the PF1-containing complexes represents a new and potentially clinically effective therapeutic strategy. While it cannot be ruled out that the effects of SID treatment act through inhibiting the interaction of additional PAH2-binding proteins with SIN3, the finding that PF1 kn ...

B1: PF1: plant homeodomain (PHD)-containing protein PF1 (PHF12) (protein)
chain: MWEKMETKTIVYDLDTSGGLMEQIQALLAPPKTDEAEKRSRKPEKEPRRSGRATNHDSCDSCKEGGDLLCCDHCPAAFHLQCCNPPLSEEMLPPGEWMCHRCTVRRKKREQKKELGHVNGLVDKSGKRTTSPSSDTDLLDRSASKTELKAIAHARILERRASRPGTPTSSASTETPTSEQNDVDEDIIDVDEEPVAAEPDYVQPQLRRPFELLIAAAMERNPTQFQLPNELTCTTALPGSSKRRRKEETTGKNVKKTQHELDHNGLVPLPVKVCFTCNRSCRVAPLIQCDYCPLLFHMDCLEPPLTAMPLGRWMCPNHIEHVVLNQKNMTLSNRCQVFDRFQDTVSQHVVKVDFLNRIHKKHPPNRRVLQSVKRRSLKVPDAIKSQYQFPPPLIAPAAIRDGELICNGIPEESQMHLLNSEHLATQAEQQEWLCSVVALQCSILKHLSAKQMPSHWDSEQTEKADIKPVIVTDSSVTTSLQTADKTPTPSHYPLSCPSGISTQNSLSCSPPHQSPALEDIGCSSCAEKSKKTPCGTANGPVNTEVKANGPHLYSSPTDSTDPRRLPGANTPLPGLSHRQGWPRPLTPPAAGGLQNHTVGIIVKTENATGPSSCPQRSLVPVPSLPPSIPSSCASIENTSTLQRKTVQSQIGPPLTDSRPLGSPPNATRVLTPPQAAGDGILATTANQRFSSPAPSSDGKVSPGTLSIGSALTVPSFPANSTAMVDLTNSLRAFMDVNGEIEINMLDEKLIKFLALQRIHQLFPSRVQPSPGSVGTHQLASGGHHIEVQRKEVQARAVFYPLLGLGGAVNMCYRTLYIGTGADMDVCLTNYGHCNYVSGKHACIFYDENTKHYELLNYSEHGTTVDNVLYSCDFSEKTPPTPPSSIVAKVQSVIRRRRHQKQDEEPSEEAAMMSSQAQGPQRRPCNCKASSSSLIGGSGAGWEGTALLHHGSYIKLGCLQFVFSITEFATKQPKGDASLLQDGVLAEKLSLKPHQGPVLRSNSVP
Which “affinity for PAH2, fold lower than MAD” value does the source give for B1 here?
The value was 10 fold.
